Test results from patent US20140127174A1 (ZEALAND PHARMA A S, published 2014).

Tests used:
[1] = target: human glucagon-like peptide 1 receptor (GLP-1-R) (human, UniProt P43220 24-463); test: cell-based or functional assay
[2] = target: human glucagon receptor (Glucagon-R) (human, UniProt P47871 26-477); test: cell-based or functional assay

Sequence of human glucagon-like peptide 1 receptor (GLP-1-R) (P43220 24-463): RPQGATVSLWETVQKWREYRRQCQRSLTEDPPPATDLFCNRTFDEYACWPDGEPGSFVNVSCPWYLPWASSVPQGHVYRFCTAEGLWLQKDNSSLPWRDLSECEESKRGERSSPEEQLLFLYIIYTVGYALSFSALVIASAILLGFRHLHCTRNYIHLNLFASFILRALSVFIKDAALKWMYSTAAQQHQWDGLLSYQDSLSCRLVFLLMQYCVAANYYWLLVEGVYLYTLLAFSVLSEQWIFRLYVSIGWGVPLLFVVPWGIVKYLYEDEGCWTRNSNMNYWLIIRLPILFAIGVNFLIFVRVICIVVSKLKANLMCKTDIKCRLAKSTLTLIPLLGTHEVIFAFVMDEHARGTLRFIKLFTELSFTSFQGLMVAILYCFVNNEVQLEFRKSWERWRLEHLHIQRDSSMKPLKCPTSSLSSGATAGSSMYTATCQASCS

H-HSQGTFTSDYSLYLDSRRAKDFIEWLERA-NH2 (not fully specified) [L006-0050 (SEQ ID NO: 12)]
EC50 of cAMP formation in HEK293 cells expressing human GLP-1-R (corrected to a purity of 50%) [1]: 170 pM | EC50 of cAMP formation in HEK293 cells expressing human Glucagon-R (corrected to a purity of 50%) [2]: 100 pM
